Where two headings read alike, the source gives them in different places. Each block holds one binder with its values, some of them ahead of it.
Tests used:
[1] = target: T1, human pIgR extracellular domain 2 (D2) (human, UniProt P01833 128-242); test: ECL (MSD) heat map, HIS-tagged construct captured via anti-HIS, anti-human-Fc detection;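 also: VHH-mono-Fc molecules tested at 100 µg/ml for 2 h on captured His-tagged pIgR constructs (10 µg/ml), read-out as electrochemiluminescence units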
T1 construct: HIS-tagged construct made in HEK293 cells; also called hpIgR domain 2
Protocol: (§1) A meso-scale discovery (MSD) platform was used for conducting epitope mapping and epitope burial studies. To test the binding of VHH-mono-Fc molecules to purified pIgR protein constructs, Streptavidin MSD plates were coated with a biotinylated anti-HIS antibody (2 μg/ml in PBS) for 1 hour at RT with 1000 rpm, washed 3× with PBT (PBS+0.1% Tween-20), incubated with blocking buffer for 1 hour at RT, incubated with His-tagged pIgR proteins (10 μg/ml in PBS) for 2 hours at RT with 1000 rpm, washed 3× with PBT, incubated with VHH-mono-Fc molecules (100 μg/ml in PBS) for 2 hours at RT with 1000 rpm, washed 3× with PBT, incubated with ruthenylated-anti-human-Fc antibody (2 μg/ml in PBS) for 1 hour at RT with 1000 rpm, washed 3× with PBT and read plates in 40 ul reading buffer using the MSD imager. ECLU values were plotted as a heatmap.
(§2) Binding of VHH-mFc molecules were tested to immobilized pIgR constructs by the electrochemiluminescence method.

[2] = target: T2, hpIgR_D3; test: as above
T2 construct: HIS-tagged construct from HEK293 cells; also called human pIgR extracellular domain 3 (D3); hD3
Protocol: as §1, §2
T2 HIS-tagged domain construct: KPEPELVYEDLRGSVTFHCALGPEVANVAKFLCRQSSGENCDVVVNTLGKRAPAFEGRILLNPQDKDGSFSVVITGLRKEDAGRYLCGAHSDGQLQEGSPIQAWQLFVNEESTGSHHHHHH

[3] = target: T3, human pIgR extracellular domain (ECD) (human, UniProt P01833 19-638); test: BLI; summary table, repeats Table 1
T3 construct: also called hpIgR ECD

[4] = target: T3, human pIgR extracellular domain (ECD); test: BLI (Octet RED384), 1:1 fit, 25 C, PBS; column kdis
[5] = target: T4, human pIgR extracellular domain 4-domain 5 (D4-D5) (human, UniProt P01833 350-565); test: as above
T4 construct: HIS-tagged construct made in HEK293 cells; also called hpIgR domains 4-5
T4 chain: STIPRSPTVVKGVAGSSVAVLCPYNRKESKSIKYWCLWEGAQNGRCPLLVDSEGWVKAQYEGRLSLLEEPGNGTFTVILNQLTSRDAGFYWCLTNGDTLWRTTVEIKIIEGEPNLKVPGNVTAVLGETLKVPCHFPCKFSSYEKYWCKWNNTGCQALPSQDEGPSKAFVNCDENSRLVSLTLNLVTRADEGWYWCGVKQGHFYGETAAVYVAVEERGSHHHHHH

[6] = target: T5, hpIgR_D2-D3; test: ECL (MSD) heat map, HIS-tagged construct captured via anti-HIS, anti-human-Fc detection
T5 construct: HIS-tagged construct from HEK293 cells; also called human pIgR extracellular domain 2-domain 3 (D2-D3); hD2-D3
T5 HIS-tagged domain construct: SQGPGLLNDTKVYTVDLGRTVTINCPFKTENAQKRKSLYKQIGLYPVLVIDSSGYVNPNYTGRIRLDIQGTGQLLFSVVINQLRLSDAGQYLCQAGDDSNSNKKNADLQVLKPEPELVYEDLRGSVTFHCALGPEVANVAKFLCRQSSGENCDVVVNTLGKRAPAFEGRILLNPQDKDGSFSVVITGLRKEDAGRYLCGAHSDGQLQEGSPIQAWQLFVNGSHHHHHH

[7] = target: T6, human pIgR extracellular domain 5 (D5) (human, UniProt P01833 460-565); test: as above
T6 construct: HIS-tagged construct made in HEK293 cells; also called hpIgR domain 5

[8] = target: T7, human pIgR, full-length, on cells (human, UniProt P01833 19-764); test: flow cytometry on MDCK-hpIgR cells; summary table, repeats Table 1
T7 construct: whole, on cells; Used for the flow cytometry EC50 values (MDCK-hpIgR) and for the transcytosis read-outs; also called hpIgR; cell-surface hpIgR
Protocol: (§3) Flow Cytometry was performed as follows. To test whether VHH-mono-Fc molecules recognize cell-surface hpIgR, Madin-Darby canine kidney (MDCK) cells engineered to express full-length hpIgR were used. Cells were cultured in Dulbecco's modified Eagle's medium containing 10% fetal calf serum at 37° C. with 5% CO₂. Cells were split into equal fractions (≈70,000 cells) and incubated with increasing concentrations of VHH-mono-Fc molecules for 30 min at 4 C. […] Cells were washed twice with cold staining buffer, resuspended in running buffer and analyzed with an iQue Screener (IntelliCyt Corporation). Binding was assessed by RL1 (A647) Geomeans from the live cell population and EC50 was calculated by fitting log VHH concentration versus MFI in Prism (Graphpad).

[9] = target: T3, human pIgR extracellular domain (ECD); test: BLI; summary table, repeats Table 1; remark: listed apart in the source
[10] = target: T7, human pIgR, full-length, on cells; test: cell-based or functional assay
[11] = target: T7, human pIgR, full-length, on cells; test: flow cytometry on MDCK-hpIgR cells; summary table, repeats Table 1; remark: listed apart in the source
[12] = target: T3, human pIgR extracellular domain (ECD); test: BLI (Octet RED384), 1:1 fit, 25 C, PBS
[13] = target: T4, human pIgR extracellular domain …; test: BLI (Octet RED384), 1:1 fit, 25 C, PBS
[14] = target: T3, human pIgR extracellular domain (ECD); test: ECL (MSD), hpIgR-ECD coated, anti-VHH detection
[15] = target: T3, human pIgR extracellular domain (ECD); test: ECL (MSD), anti-VHH detection against anti-Fc detection
Protocol: To check whether VHH recognizes a buried epitope on pIgR, EC₅₀ values were measured for VHH-mono-Fc molecules binding to hpIgR-ECD protein by electrochemiluminescence using two different detection antibodies, an anti-Fc antibody and an anti-VHH antibody. pIgR ECD (10 μg/ml in PBS) was coated on high-bind MSD plates for 2 hours at RT with 1000 rpm, incubated with blocking buffer for 1 hour at RT, incubated with VHH-mono-Fc molecules (increasing concentrations in PBS) for 2 hours at RT with 1000 rpm, washed 3× with PBT, incubated with ruthenylated secondary antibody (2 μg/ml in PBS) for 1 hour at RT with 1000 rpm, washed 3× with PBT and read plates in 40 ul reading buffer using the MSD imager. EC50 was calculated by fitting log VHH concentration versus log ECLU in Prism (Graphpad). The increase in EC₅₀ (>50-fold) due to anti-VHH detection was used as a measure to determine whether VHH recognized buried epitope on pIgR.

[16] = target: T7, human pIgR, full-length, on cells; test: cell-based or functional assay; remark: listed apart in the source
[17] = target: T7, human pIgR, full-length, on cells; test: flow cytometry on MDCK-hpIgR cells
Protocol: as §3

[18] = target: T3, human pIgR extracellular domain (ECD); test: BLI (Octet), VHH-mono-Fc and hpIgR ectodomain
[19] = target: T3, human pIgR extracellular domain (ECD); test: ECL (MSD), hpIgR-ECD coated, anti-Fc detection
[20] = target: T6, human pIgR extracellular domain 5 (D5); test: ECL (MSD) heat map, HIS-tagged construct captured via anti-HIS, anti-human-Fc detection; remark: listed apart in the source
Protocol: as §1, §2

[21] = target: T8, human pIgR extracellular domain 1 (D1) (human, UniProt P01833 19-127); test: as above
T8 construct: HIS-tagged construct made in HEK293 cells; also called hpIgR domain-1
Protocol: as §1, §2

[22] = target: T7, human pIgR, full-length, on cells; test: cell-based or functional assay; remark: listed apart in the source
[23] = target: T4, human pIgR extracellular domain …; test: ECL (MSD) heat map, HIS-tagged construct captured via anti-HIS, anti-human-Fc detection
[24] = target: T9, human pIgR extracellular domain 1-domain 2 (D1-D2) (human, UniProt P01833 19-240); test: BLI (Octet RED384), 1:1 fit, 25 C, PBS
T9 construct: HIS-tagged construct made in HEK293 cells
Protocol: (§4) Bio-layer Interferometry was performed as follows. […] Data were collected with Octet Data Acquisition version 7.1.0.87 (ForteBio) and analyzed using Octet Data Analysis version 7.1 (ForteBio). To measure binding kinetics between VHH-mono-Fc molecules and HIS-tagged pIgR proteins, VHH-mono-Fc was immobilized on amine-reactive generation-2 (ARG2) biosensors according to manufacturer's instructions and increasing concentrations of pIgR proteins were exposed to sensor-immobilized VHH. In some cases, HIS-tagged pIgR proteins were immobilized on anti-HIS biosensors and exposed to increasing concentrations of VHH-mono-Fc molecules. Association and dissociation rates were measured by the shift in wavelength (nm). […] All reactions were performed at 25° C. in PBS.

[25] = target: T5, hpIgR_D2-D3; test: BLI (Octet RED384), 1:1 fit, 25 C, PBS
Protocol: as §4

[26] = target: T3, human pIgR extracellular domain (ECD); test: BLI (Octet RED384), 1:1 fit, 25 C, PBS; remark: listed apart in the source
Protocol: as §4

[27] = target: T1, human pIgR extracellular domain 2 (D2); test: BLI (Octet RED384), 1:1 fit, 25 C, PBS
Protocol: as §4

[28] = target: T9, human pIgR extracellular domain …; test: BLI (Octet RED384), 1:1 fit, 25 C, PBS; column kdis
[29] = target: T5, hpIgR_D2-D3; test: as above
[30] = target: T3, human pIgR extracellular domain (ECD); test: as above; remark: listed apart in the source
[31] = target: T1, human pIgR extracellular domain 2 (D2); test: as above

T3 sequence (P01833 other isoform, or with tags, fused parts or gaps): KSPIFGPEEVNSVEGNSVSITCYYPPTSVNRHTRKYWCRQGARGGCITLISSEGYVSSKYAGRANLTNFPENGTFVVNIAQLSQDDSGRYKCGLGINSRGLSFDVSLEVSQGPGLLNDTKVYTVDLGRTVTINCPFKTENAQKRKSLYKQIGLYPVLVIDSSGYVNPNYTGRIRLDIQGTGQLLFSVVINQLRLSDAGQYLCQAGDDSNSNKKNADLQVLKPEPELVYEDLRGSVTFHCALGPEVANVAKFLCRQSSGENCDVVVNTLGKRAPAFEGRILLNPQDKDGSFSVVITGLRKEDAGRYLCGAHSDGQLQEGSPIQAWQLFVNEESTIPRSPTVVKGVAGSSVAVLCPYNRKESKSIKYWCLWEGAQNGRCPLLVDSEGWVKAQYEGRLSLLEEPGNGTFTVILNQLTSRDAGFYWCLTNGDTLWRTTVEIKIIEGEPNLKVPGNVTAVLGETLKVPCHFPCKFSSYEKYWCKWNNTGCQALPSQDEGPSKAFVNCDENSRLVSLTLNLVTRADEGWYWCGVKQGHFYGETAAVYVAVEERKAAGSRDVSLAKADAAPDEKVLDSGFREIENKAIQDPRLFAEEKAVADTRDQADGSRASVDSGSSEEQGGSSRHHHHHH
T9 sequence (P01833 other isoform, or with tags, fused parts or gaps limits assumed): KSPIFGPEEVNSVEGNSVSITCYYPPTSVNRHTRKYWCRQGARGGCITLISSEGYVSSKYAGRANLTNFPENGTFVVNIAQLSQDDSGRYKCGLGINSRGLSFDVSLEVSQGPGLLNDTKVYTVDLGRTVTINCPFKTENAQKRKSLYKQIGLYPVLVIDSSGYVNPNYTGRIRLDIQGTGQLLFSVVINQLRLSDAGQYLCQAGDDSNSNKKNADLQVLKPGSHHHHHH
T7 sequence (P01833 19-764): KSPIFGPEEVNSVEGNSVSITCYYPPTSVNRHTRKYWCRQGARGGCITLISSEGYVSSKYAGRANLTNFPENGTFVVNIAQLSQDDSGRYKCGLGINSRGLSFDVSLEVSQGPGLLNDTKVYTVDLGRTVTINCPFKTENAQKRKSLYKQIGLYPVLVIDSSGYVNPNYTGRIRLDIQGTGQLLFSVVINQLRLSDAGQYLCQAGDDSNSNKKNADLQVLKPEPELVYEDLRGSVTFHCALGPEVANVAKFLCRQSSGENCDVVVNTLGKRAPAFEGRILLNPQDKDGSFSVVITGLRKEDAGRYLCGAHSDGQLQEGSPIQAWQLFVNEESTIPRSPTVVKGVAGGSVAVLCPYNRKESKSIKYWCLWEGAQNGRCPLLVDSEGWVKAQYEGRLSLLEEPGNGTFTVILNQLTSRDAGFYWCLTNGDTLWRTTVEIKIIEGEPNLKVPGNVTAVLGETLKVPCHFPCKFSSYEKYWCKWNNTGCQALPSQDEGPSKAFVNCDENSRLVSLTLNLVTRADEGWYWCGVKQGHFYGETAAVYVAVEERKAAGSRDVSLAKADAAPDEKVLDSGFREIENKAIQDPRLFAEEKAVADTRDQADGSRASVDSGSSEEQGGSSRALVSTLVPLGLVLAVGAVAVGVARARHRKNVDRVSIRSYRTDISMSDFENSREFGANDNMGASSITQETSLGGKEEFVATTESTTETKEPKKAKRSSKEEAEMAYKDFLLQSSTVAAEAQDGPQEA
T8 sequence (P01833 other isoform, or with tags, fused parts or gaps limits assumed): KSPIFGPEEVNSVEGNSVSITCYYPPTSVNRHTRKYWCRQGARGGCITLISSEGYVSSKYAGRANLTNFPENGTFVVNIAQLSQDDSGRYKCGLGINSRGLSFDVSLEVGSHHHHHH

Kd [3]: 256 nM
koff [4]: 0.00513 s⁻¹
koff [5]: 0.00188 s⁻¹
EC50 [8]: 20.4 nM
Kd [9]: 256 nM
Transcytosis (Fold Incr.) [10]: 5 fold
EC50 [11]: 20.4 nM
Kd [12]: 256 nM
kon [12]: 20000 M⁻¹ s⁻¹
Kd [13]: 115 nM
kon [13]: 16300 M⁻¹ s⁻¹
EC50 [14]: 43.9 nM
Fold change in EC50 [15]: 2.5 fold
For. Trans. (Fold Incr.) [16]: 1.3 fold
Rev. Trans (Fold Incr.) [16]: 3.4 fold
EC50 [17]: 20.4 nM
Kd [18]: 256 nM
EC50 [19]: 17.6 nM
B1: VHH10-linker-mono-Fc protein (Fc fusion)
chain: EVQVVESGGGLVQAGGSLRLSCAASGFTFTRYAMGWFRQAPGKERSFVAAISWSGSSAGYGDSVKGRFTISRDNAKNTLYLQMNSLKPEDTAVYYCAADPFNQGYWGQGTQVTVSSEPKTPKPQPQPQLQPQPNPTTESKSPKSPAPELLGGPSVFLFPPKPKDTLMISRTPEVTCVVVDVSHEDPEVKFNWYVDGVEVHNAKTKPREEQYNSTYRVVSVLTVLHQDWLNGKEYKCKVSNKALPAPIEKTISKAKGQPREPQVYTKPPSREEMTKNQVSLSCLVKGFYPSDIAVEWESNGQPENNYKTTVPVLDSDGSFRLASYLTVDKSRWQQGNVFSCSVMHEALHNHYTQKSLSLSPGK
notes: made in CHO cells; also called VHH10-mono-Fc; hpIgR_225
binding result [1]: no binding (tested: 100 ug/ml (single concentration))
binding result [2]: no binding (tested: 100 ug/ml (single concentration))
binding result [6]: no binding (tested: 100 ug/ml (single concentration))
binding result [7]: no binding (tested: 100 ug/ml (single concentration))

Kd [3]: 27 nM
increase in their apical concentration relative to control VHH (MDCK-hpIgR monolayers) [22]: > 10 fold
EC50 [8]: 11.5 nM
Kd [9]: 27 nM
Kd [24]: 63.2 nM
kon [24]: 40000 M⁻¹ s⁻¹
Kd [25]: 71.5 nM
kon [25]: 34800 M⁻¹ s⁻¹
Kd [26]: 48.9 nM
kon [26]: 44700 M⁻¹ s⁻¹
Kd [27]: 68.1 nM
kon [27]: 39500 M⁻¹ s⁻¹
koff [28]: 0.00253 s⁻¹
koff [29]: 0.00249 s⁻¹
koff [30]: 0.00219 s⁻¹
koff [31]: 0.00269 s⁻¹
Transcytosis (Fold Incr.) [10]: 30.7 fold
EC50 [11]: 11.5 nM
EC50 [14]: 4190 nM
Fold change in EC50 [15]: 1060 fold
For. Trans. (Fold Incr.) [16]: 25.6 fold
Rev. Trans (Fold Incr.) [16]: 14.6 fold
EC50 [17]: 11.5 nM
Kd [18]: 27 nM
EC50 [19]: 3.9 nM
B2: VHH6-linker-mono-Fc protein (Fc fusion)
chain: EVQLVESGGGLVQAGGSLRLSCAVSGSSVSSDAMGWYRQAPGNQRAWVAFISGGGTTTYADSVKGRFTISRDNTKNTVYLHMNSLKPEDTAVYYCNHPLTSRWGQGTQVTVSSEPKTPKPQPQPQLQPQPNPTTESKSPKSPAPELLGGPSVFLFPPKPKDTLMISRTPEVTCVVVDVSHEDPEVKFNWYVDGVEVHNAKTKPREEQYNSTYRVVSVLTVLHQDWLNGKEYKCKVSNKALPAPIEKTISKAKGQPREPQVYTKPPSREEMTKNQVSLSCLVKGFYPSDIAVEWESNGQPENNYKTTVPVLDSDGSFRLASYLTVDKSRWQQGNVFSCSVMHEALHNHYTQKSLSLSPGK
notes: made in CHO cells; also called VHH6-mono-Fc; hpIgR_181
binding result [20]: no binding (tested: 100 ug/ml (single concentration))
binding result [2]: no binding (tested: 100 ug/ml (single concentration))
binding result [21]: no binding (tested: 100 ug/ml (single concentration))
binding result [23]: no binding (tested: 100 ug/ml (single concentration))
